Laboratory results reported in patent US12618111.

Molecular target: LFA1 receptor on T cells (human) (UniProt P20701)
Experiment: cell-based or functional assay

UniProt P20701, sequence (P20701 26-1170, chain 1 of 2): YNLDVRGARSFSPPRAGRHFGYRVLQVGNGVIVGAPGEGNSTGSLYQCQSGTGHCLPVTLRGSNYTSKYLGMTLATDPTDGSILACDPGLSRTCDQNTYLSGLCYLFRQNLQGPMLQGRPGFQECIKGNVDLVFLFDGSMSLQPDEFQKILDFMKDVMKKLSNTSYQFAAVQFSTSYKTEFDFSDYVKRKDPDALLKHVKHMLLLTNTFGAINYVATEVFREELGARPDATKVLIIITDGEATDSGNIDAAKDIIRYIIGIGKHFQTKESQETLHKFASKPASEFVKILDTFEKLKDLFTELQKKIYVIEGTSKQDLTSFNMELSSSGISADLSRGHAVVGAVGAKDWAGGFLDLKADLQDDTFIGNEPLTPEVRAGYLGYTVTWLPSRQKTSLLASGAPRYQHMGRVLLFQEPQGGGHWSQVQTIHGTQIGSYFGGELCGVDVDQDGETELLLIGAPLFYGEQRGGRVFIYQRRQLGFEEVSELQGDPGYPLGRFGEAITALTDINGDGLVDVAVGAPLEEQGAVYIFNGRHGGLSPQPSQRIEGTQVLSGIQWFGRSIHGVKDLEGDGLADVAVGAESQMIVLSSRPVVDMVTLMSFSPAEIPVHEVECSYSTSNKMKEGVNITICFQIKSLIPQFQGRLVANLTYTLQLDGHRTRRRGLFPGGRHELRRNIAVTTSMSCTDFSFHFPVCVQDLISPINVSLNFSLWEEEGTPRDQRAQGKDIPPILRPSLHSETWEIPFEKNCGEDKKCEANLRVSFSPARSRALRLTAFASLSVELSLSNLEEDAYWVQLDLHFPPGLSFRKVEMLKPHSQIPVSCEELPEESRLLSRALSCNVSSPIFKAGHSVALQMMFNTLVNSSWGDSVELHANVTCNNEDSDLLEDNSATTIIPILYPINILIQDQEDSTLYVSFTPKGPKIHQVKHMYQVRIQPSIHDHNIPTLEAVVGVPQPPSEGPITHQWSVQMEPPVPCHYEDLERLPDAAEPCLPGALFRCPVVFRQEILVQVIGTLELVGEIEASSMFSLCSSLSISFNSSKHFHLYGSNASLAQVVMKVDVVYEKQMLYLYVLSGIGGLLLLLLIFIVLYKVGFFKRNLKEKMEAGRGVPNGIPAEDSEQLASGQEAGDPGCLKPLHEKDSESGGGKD
UniProt P20701, sequence (P05107 23-769, chain 2 of 2, further chain): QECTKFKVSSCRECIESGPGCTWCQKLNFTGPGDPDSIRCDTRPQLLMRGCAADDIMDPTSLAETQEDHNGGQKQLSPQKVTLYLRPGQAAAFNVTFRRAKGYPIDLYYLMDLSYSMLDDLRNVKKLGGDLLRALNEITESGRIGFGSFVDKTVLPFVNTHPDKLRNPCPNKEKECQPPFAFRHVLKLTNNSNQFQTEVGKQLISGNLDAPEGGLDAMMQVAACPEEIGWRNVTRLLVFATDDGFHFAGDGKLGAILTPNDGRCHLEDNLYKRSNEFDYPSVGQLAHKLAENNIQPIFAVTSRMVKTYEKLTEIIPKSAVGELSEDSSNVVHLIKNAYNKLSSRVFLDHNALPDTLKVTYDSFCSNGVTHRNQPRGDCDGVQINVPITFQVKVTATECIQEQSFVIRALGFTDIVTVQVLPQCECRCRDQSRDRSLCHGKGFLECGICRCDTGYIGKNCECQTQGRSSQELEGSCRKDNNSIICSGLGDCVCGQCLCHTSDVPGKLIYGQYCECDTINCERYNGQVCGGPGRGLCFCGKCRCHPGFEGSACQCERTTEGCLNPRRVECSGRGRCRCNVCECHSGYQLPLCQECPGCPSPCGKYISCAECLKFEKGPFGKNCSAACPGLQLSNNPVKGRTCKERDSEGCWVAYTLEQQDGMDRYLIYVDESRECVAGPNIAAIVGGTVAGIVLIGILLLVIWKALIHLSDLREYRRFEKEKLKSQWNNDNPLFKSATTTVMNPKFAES

Question: For anti-LFA1 (TS1/18) monoclonal antibody, which IFN-γ secretion (ELISA) by CD4+ T cells stimulated with IL12, IL18 and TL1A after pretreatment with LFA1 blocking antibody, compared to IgG control antibody is on record?
Answer: The IFN-γ secretion (ELISA) by CD4+ T cells stimulated with IL12, IL18 and TL1A after pretreatment with LFA1 blocking antibody, compared to IgG control antibody was 43 % reduction.
